# Biological target: endogenous Ldb1 complexes at the LCR (in G1E cells) (UniProt P70662)
# Assay: cell-based or functional assay
# Chain of UniProt P70662 (P70662 2-411 limits assumed, one chain of several): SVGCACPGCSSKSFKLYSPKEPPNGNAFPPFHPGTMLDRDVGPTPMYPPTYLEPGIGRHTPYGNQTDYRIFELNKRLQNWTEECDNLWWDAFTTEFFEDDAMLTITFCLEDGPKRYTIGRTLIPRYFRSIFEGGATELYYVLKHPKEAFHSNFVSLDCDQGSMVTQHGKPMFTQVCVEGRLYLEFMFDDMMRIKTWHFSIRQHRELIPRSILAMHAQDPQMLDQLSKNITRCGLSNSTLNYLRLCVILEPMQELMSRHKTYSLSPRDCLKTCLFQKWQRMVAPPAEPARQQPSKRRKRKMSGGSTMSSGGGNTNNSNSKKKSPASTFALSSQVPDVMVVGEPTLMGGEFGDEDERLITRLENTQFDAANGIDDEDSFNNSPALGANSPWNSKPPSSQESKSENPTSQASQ
substance,measurement,value
"P-Ldb1 (P-ZF, zinc finger protein targeting the β-major promoter, fused to full length Ldb1)",β-globin transcription in G1E cells (RT-qPCR),> 1000 fold
